Assay results taken from article PMC4162405 (Cell reports, 2014).

T1: purified human PALB2 (Partner and localizer of BRCA2) (human, UniProt Q86YC2 1-1186)
T1 sequence (looked up): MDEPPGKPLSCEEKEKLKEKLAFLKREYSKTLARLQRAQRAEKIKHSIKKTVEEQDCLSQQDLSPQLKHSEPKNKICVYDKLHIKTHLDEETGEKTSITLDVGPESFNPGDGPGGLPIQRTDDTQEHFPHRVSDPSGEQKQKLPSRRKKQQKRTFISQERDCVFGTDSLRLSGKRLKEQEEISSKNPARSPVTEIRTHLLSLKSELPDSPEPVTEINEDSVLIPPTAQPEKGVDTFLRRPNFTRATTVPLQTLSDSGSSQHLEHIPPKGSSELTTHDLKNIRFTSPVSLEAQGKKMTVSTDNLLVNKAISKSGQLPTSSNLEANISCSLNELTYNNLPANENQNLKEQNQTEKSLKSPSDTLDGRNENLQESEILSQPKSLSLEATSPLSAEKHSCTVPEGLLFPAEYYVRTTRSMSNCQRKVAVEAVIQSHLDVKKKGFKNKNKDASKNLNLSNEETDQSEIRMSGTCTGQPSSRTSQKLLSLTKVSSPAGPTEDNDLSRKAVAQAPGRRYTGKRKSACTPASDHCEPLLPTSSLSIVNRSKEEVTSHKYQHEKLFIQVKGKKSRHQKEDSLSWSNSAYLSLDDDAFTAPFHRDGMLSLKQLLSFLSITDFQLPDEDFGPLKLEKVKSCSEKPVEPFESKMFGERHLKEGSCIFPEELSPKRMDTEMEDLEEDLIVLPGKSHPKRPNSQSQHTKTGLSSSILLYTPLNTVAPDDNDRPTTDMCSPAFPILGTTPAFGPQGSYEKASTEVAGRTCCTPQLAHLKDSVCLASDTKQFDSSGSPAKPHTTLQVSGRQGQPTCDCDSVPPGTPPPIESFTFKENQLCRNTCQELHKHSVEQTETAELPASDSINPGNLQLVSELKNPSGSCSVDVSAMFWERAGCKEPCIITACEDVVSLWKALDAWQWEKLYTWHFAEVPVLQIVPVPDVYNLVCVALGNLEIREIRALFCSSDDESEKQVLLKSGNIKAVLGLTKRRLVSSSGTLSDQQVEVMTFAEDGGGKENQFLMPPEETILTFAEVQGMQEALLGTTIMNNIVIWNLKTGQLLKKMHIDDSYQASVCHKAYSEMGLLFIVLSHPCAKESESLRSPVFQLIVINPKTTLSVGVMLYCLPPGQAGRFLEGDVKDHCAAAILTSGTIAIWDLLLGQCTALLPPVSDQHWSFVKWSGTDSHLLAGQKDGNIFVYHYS

B1: Polymerase eta (Polη), purified human (enzyme, UniProt Q9Y253 1-713, looked up)
chain: MATGQDRVVALVDMDCFFVQVEQRQNPHLRNKPCAVVQYKSWKGGGIIAVSYEARAFGVTRSMWADDAKKLCPDLLLAQVRESRGKANLTKYREASVEVMEIMSRFAVIERASIDEAYVDLTSAVQERLQKLQGQPISADLLPSTYIEGLPQGPTTAEETVQKEGMRKQGLFQWLDSLQIDNLTSPDLQLTVGAVIVEEMRAAIERETGFQCSAGISHNKVLAKLACGLNKPNRQTLVSHGSVPQLFSQMPIRKIRSLGGKLGASVIEILGIEYMGELTQFTESQLQSHFGEKNGSWLYAMCRGIEHDPVKPRQLPKTIGCSKNFPGKTALATREQVQWWLLQLAQELEERLTKDRNDNDRVATQLVVSIRVQGDKRLSSLRRCCALTRYDAHKMSHDAFTVIKNCNTSGIQTEWSPPLTMLFLCATKFSASAPSSSTDITSFLSSDPSSLPKVPVTSSEAKTQGSGPAVTATKKATTSLESFFQKAAERQKVKEASLSSLTAPTQAPMSNSPSKPSLPFQTSQSTGTEPFFKQKSLLLKQKQLNNSSVSSPQQNPWSNCKALPNSLPTEYPGCVPVCEGVSKLEESSKATPAEMDLAHNSQSMHASSASKSVLEVTQKATPNPSLLAAEDQVPCEKCGSLVPVWDMPEHMDYHFALELQKSFLQPHSSNPQVVSAVSHQGKRNPKSPLACTNKRPRPEGMQTLESFFKPLTH
B2: GST-PALB2 WD40 domain (residues 853–1186) (domain or fragment, human, UniProt Q86YC2 853-1186, looked up)
chain: GNLQLVSELKNPSGSCSVDVSAMFWERAGCKEPCIITACEDVVSLWKALDAWQWEKLYTWHFAEVPVLQIVPVPDVYNLVCVALGNLEIREIRALFCSSDDESEKQVLLKSGNIKAVLGLTKRRLVSSSGTLSDQQVEVMTFAEDGGGKENQFLMPPEETILTFAEVQGMQEALLGTTIMNNIVIWNLKTGQLLKKMHIDDSYQASVCHKAYSEMGLLFIVLSHPCAKESESLRSPVFQLIVINPKTTLSVGVMLYCLPPGQAGRFLEGDVKDHCAAAILTSGTIAIWDLLLGQCTALLPPVSDQHWSFVKWSGTDSHLLAGQKDGNIFVYHYS
B3: GST-BRCA2 truncation 4 (residues 1338–1781) (domain or fragment, human, UniProt P51587 1338-1781, looked up)
chain: GSDSSKNDTVCIHKDETDLLFTDQHNICLKLSGQFMKEGNTQIKEDLSDLTFLEVAKAQEACHGNTSNKEQLTATKTEQNIKDFETSDTFFQTASGKNISVAKESFNKIVNFFDQKPEELHNFSLNSELHSDIRKNKMDILSYEETDIVKHKILKESVPVGTGNQLVTFQGQPERDEKIKEPTLLGFHTASGKKVKIAKESLDKVKNLFDEKEQGTSEITSFSHQWAKTLKYREACKDLELACETIEITAAPKCKEMQNSLNNDKNLVSIETVVPPKLLSDNLCRQTENLKTSKSIFLKVKVHENVEKETAKSPATCYTNQSPYSVIENSALAFYTSCSRKTSVSQTSLLEAKKWLREGIFDGQPERINTADYVGNYLYENNSNSTIAENDKNHLSEKQDTYLSNSSMSNSYSYHSDEVYNDSGYLSKNKLDSGIEPVLKNVED

Tests used:
[1] = molecular target: T1, purified human PALB2 (Partner and …); assay: co-IP
[2] = molecular target: B1; assay: pull-down
[3] = molecular target: B1; assay: co-IP

Binder: B1
binding result [1]: binds

Binder: B2
binding result [2]: binds

Binder: B3
binding result [3]: binds
